Data on two molecules can be found in patent US20240190999A1 (Molecular Partners, published 2024).

Experiment [1] concerns the target cynomolgus serum albumin (CSA) (cynomolgus monkey, UniProt A2V9Z4 25-608). Briefly: SPR (ProteOn XPR36), MpA captured on bio.h4-1BB, CSA analyte, 1:1 Langmuir fit. As for the experimental part:
(§1) ProteOn setup for MpA binding to serum albumin of different species: SPR measurements were performed using a ProteOn XPR36 instrument (BioRad). The running buffer was PBS pH 7.4 containing 0.005% Tween 20® (PBST). First, bio.h4-1BB was coated on NLC chip (BioRad) to a level of 320 RU before […] MpA was immobilized for 180 s at constant flow of 30 μl/min to a level of 200 RU. The binding of the serum albumin to MpA was detected by applying HSA (human serum albumin), CSA (cynomolgus serum albumin) and MSA (mouse serum albumin) as titration with a 180 s association and 1800 s dissociation phase using a constant flow of 100 μl/min. HSA, CSA and MSA binding was measured serially and the bio.h4-1BB/MpA complex was regenerated each time with 10 mM glycine pH 2 and 124 mM H3P04. Thus, MpA had to be recoated after each regeneration step. The signals were double referenced against the running buffer (PBST) treated control lane of L1 and A6. The 1:1 Langmuir model was used for the fitting.

In experiment [2] the target is T1, biotinylated mouse 4-1BB (bio.m4-1BB) (mouse, UniProt P20334 24-187, limits assumed, biotinylated (site not stated)).
T1 sequence (looked up): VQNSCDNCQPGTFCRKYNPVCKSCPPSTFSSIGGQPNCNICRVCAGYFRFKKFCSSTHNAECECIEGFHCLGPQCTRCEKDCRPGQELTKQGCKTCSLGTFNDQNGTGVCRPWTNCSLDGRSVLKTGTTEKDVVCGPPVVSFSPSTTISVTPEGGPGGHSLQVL
Briefly: SPR (ProteOn XPR36), bio.m4-1BB on NLC chip, MpA as analyte. As for the experimental part:
(§2) ProteOn setup for MpA binding to 4-1BB of different species: SPR measurements were performed using a ProteOn XPR36 instrument (BioRad). The running buffer was PBS pH 7.4 containing 0.005% Tween 20® (PBST). The bio.h4-1BB, bio.c4-1BB and bio.m4-1BB were immobilized on NLC chips (BioRad) to a level of 320 RU. The binding of MpA to 4-1BB was measured by injecting MpA in a serial dilution of 30, 10, 3.3, 1.1 and 0.3 nM with an association of 180 s and dissociation of 1800 s using a constant flow of 100 μl/min (see Table 3). The measurement was repeated three times and the targets were regenerated between the individual measurements using 10 mM glycine pH 2 and 124 mM H₃PO₄. The signals were double referenced against the running buffer (PBST) treated control lane of L1 and A6. h4-1BB, c-4-1BB, and m4-1BB refer to human, cynomolgus, and mouse orthologs of 4-1BB, respectively.

Experiment [3] concerns the target T2, human 4-1BB on primary human CD8 T cells (human, UniProt Q07011 24-255). Briefly: cell-based or functional assay.
Experiment [4] deals with human serum albumin (HSA) (human, UniProt P02768 25-609). Briefly: SPR (ProteOn XPR36), MpA captured on bio.h4-1BB, HSA analyte, 1:1 Langmuir fit. The method, then: as §1
For experiment [5], the target named is T3, human 4-1BB on transfected HT1080 NF-kB-luciferase reporter cells (human, UniProt Q07011 24-255). In words: cell-based or functional assay.
T3 sequence (Q07011 24-255 limits assumed): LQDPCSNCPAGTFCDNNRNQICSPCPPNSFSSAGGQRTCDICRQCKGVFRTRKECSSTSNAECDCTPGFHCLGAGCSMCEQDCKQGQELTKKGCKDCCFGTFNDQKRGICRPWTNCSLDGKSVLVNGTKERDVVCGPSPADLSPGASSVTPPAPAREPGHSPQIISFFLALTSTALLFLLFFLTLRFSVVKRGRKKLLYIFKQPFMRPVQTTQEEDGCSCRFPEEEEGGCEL
The next experiment deals with T4, cynomolgus FAP (cFAP) (cynomolgus monkey).
T4 chain: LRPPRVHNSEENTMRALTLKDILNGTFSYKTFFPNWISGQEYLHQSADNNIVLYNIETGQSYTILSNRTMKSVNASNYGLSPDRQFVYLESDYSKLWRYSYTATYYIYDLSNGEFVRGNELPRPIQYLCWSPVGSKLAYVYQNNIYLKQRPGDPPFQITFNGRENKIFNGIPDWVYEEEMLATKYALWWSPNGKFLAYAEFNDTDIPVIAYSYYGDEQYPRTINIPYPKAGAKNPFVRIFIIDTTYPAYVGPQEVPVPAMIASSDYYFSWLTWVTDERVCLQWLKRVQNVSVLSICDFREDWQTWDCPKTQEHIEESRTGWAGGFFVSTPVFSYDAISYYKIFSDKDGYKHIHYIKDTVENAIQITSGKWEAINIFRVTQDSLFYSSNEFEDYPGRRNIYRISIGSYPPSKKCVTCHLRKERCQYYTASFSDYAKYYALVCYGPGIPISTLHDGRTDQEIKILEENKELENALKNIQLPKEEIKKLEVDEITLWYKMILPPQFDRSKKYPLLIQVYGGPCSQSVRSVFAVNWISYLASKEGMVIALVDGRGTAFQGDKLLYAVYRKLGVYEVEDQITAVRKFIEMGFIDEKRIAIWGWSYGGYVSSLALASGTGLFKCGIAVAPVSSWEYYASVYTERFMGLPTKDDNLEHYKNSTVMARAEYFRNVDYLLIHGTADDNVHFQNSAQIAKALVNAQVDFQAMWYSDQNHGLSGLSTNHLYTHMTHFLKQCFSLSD
In words: SPR (ProteOn XPR36), cFAP on GLC chip, MpA analyte, 1:1 Langmuir fit. As for the experimental part: (§3) ProteOn setup for MpA binding to FAP of different species: SPR measurements were performed using a ProteOn XPR36 instrument (BioRad). The running buffer was PBS pH 7.4 containing 0.005% Tween 200 (PBST). hFAP (human FAP), cFAP (cynomolgus FAP) and mFAP (mouse FAP) were immobilized on a GLC chip (BioRad) at pH 5.3 to a level of 2000 RU, 1700 RU and 5000 RU, respectively. The interaction of FAP and MpA was measured by applying the MpA molecule as titration (see Table 2).

For experiment [6], the target named is T5, biotinylated human 4-1BB (bio.h4-1BB) (human, UniProt Q07011 24-186, limits assumed, biotinylated (site not stated)).
T5 construct: also called CD137
T5 sequence (Q07011 24-186 limits assumed): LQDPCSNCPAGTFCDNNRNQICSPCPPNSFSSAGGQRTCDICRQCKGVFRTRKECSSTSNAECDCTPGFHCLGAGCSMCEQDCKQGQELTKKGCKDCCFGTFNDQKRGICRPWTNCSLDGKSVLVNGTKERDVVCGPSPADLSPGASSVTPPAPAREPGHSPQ
In words: SPR (ProteOn XPR36), bio.h4-1BB on NLC chip, MpA analyte; mean of triplicate. The method, then:
as §2

Experiment [7] deals with T6, human fibroblast activation protein (hFAP) (human, UniProt Q12884 26-760, limits assumed).
T6 construct: Recombinant soluble protein; also called human FAP; rhFAP
Briefly: SPR (ProteOn XPR36), hFAP on GLC chip, MpA analyte, 1:1 Langmuir fit; mean of duplicate. As for the experimental part:
as §3
Two independent measurements were conducted to detect the binding of MpA to hFAP. The targets were regenerated using 10 mM glycine pH 2 and 124 mM H₃PO₄. The signals were double referenced against the PBST treated control lane of L1 and A6. The 1:1 Langmuir model was used for the fitting.

Experiment [8] concerns the target mouse serum albumin (MSA) (mouse, UniProt P07724 25-608). In words: SPR (ProteOn XPR36), MpA captured on bio.h4-1BB, MSA analyte, 1:1 Langmuir fit. The method, then:
as §1

Experiment [9] deals with T5, biotinylated human 4-1BB (bio.h4-1BB). In words: SPR (ProteOn XPR36), bio.h4-1BB on NLC chip, MpA analyte; mean of triplicate; apparent affinity (bivalent). The method, then:
as §2

In experiment [10] the target is T2, human 4-1BB on primary human CD8 T cells. In words: cell-based or functional assay. This is another data set of the same source.
The target of another experiment is mouse FAP (mFAP) (mouse, UniProt P97321 26-761, limits assumed). Briefly: SPR (ProteOn XPR36), mFAP on GLC chip, MpA as analyte. The method, then: as §3
Sequence of mouse FAP (mFAP) (P97321 26-761 limits assumed): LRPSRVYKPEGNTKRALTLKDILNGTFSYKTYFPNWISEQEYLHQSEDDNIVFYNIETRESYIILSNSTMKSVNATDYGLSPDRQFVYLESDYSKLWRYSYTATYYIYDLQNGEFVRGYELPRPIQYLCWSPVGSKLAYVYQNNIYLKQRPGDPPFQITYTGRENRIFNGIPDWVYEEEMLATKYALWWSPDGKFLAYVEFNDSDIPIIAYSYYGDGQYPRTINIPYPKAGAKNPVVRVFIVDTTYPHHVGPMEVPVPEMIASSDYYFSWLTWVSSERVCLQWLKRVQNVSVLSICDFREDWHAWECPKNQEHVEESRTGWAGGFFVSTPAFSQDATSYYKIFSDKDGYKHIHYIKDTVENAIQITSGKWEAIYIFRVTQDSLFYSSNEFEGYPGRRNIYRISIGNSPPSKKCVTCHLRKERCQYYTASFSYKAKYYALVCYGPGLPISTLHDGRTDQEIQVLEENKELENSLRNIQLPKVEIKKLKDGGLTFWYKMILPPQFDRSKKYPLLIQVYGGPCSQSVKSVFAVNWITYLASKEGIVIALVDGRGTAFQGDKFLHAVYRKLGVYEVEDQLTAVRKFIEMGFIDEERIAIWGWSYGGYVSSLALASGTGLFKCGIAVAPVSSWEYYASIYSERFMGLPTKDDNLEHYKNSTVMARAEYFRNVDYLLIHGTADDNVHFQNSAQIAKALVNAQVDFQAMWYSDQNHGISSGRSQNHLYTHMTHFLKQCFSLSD
Experiment [11] deals with T3, human 4-1BB on transfected HT1080 …. Briefly: cell-based or functional assay. The source holds these as a separate data set.
Experiment [12] has as its target T6, human fibroblast activation protein …. Briefly: SPR (ProteOn XPR36), hFAP immobilised on GLC chip, construct as analyte. The method, then: (§4) Assay set-up: Briefly, SPR measurements were performed using a ProteOn XPR36 instrument (BioRad) as described above. Biotinylated human and cynomolgus 4-1BB and human FAP were immobilized either directly or indirectly via NeutrAvidin (˜6000 RU pre-coated) on a GLC chip to reach 600 RU, 700 RU and 2000 RU, respectively. The interaction of FAP-4-1BB bispecific constructs to the coated targets was measured by injecting the bispecific constructs in a serial dilution of 50, 16.7, 5.6, 1.9 and 0.6 nM with an association of 120 s and dissociation of 1800 s using a constant flow rate of 30 μl/min. Targets were regenerated between the individual measurements using 10 mM glycine pH 2 and 124 mM H₃PO₄. The signals were double referenced against the running buffer (PBST) treated control lane.
Target sequence in this assay (Q12884 26-760 limits assumed): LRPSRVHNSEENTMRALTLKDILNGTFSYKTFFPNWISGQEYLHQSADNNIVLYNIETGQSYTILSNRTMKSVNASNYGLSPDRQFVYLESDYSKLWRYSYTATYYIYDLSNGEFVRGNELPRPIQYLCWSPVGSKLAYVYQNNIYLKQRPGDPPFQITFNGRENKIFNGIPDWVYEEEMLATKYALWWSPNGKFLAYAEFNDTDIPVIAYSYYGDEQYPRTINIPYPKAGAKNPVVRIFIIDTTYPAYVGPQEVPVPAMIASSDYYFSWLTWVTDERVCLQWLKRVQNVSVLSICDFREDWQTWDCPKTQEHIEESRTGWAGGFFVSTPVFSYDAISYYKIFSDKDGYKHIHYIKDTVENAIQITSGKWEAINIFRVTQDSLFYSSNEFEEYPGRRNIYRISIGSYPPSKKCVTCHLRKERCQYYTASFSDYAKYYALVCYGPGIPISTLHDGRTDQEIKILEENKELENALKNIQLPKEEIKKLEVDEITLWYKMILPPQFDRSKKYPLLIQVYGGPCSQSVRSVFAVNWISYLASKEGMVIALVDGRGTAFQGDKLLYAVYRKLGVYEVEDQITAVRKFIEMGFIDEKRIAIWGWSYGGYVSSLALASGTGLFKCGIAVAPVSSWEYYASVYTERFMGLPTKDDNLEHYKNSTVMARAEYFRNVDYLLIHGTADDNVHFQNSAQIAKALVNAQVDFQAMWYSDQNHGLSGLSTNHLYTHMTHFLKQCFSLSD

In experiment [13] the target is T3, human 4-1BB on transfected HT1080 …. Briefly: cell-based or functional assay. This is another data set of the same source.
Experiment [14] has the same target. In words: cell-based or functional assay. This is another data set of the same source.
For experiment [15], the target named is T5, biotinylated human 4-1BB (bio.h4-1BB). Briefly: SPR (ProteOn XPR36), biotinylated h4-1BB immobilised on GLC chip, construct as analyte. As for the experimental part: as §4
Experiment [16] has as its target T6, human fibroblast activation protein …. Briefly: SPR (ProteOn XPR36); end of the group's range, tied to #44 by Table 15. The method, then: as §4
Target sequence in this assay (Q12884 26-760 limits assumed): as above

Sequence of cynomolgus serum albumin (CSA) (A2V9Z4 25-608 limits assumed): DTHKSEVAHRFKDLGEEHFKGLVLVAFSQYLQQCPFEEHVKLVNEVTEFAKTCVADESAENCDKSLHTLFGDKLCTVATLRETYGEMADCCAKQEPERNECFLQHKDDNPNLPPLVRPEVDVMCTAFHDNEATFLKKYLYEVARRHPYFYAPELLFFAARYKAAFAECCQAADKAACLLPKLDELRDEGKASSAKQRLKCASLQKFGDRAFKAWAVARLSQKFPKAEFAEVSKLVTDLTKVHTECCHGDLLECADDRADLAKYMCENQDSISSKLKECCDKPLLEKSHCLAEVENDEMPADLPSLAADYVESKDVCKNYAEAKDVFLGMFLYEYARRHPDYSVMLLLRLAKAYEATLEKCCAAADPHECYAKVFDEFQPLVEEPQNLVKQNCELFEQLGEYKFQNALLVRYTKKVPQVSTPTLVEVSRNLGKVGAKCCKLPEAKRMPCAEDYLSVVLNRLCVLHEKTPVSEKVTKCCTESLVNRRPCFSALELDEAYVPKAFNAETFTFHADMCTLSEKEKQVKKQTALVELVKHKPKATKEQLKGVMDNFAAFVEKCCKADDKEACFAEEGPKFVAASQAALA
Sequence of mouse serum albumin (MSA) (P07724 25-608 limits assumed): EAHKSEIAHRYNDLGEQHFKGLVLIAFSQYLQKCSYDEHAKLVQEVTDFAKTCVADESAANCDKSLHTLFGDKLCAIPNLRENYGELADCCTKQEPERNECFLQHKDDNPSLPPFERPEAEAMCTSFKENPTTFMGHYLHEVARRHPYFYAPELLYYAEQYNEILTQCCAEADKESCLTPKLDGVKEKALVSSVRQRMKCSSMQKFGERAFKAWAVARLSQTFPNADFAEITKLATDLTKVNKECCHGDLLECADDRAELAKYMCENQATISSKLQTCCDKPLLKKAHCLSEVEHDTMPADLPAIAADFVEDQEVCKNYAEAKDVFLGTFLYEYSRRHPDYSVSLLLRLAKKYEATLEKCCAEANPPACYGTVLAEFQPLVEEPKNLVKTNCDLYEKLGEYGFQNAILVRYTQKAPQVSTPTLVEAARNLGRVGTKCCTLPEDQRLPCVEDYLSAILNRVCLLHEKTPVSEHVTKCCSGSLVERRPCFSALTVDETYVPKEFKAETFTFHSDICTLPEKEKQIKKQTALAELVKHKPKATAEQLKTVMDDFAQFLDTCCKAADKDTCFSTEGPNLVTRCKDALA
T2 sequence (Q07011 24-255 limits assumed): as the sequence (Q07011 24-255 limits assumed) above

B1: Multispecific binding protein A (MpA) (designed binder)
chain: GSDLGKKLLEAARAGQDDEVRELLKAGADVNAKDYFSHTPLHLAARNGHLKIVEVLLKAGADVNAKDFAGKTPLHLAAADGHLEIVEVLLKAGADVNAQDIFGKTPADIAADAGHEDIAEVLQKAAGSPTPTPTTPTPTPTTPTPTPTGSDLGKKLLEAARAGQDDEVRELLKAGADVNAKDVLGWTPLHLAAFEGHLEIVEVLLKAGADVNAKDKKGWTPLQLAARTGHLEIVEVLLKAGADVNAKDHIGATPLHLAAWQGHPEIVEVLLKAGADVNAQDKSGKTPADLAADAGHEDIAEVLQKAAGSPTPTPTTPTPTPTTPTPTPTGSDLGQKLLKAAQEGQDDEVRELLKAGADVNAKDLRGITPLHVAAWQGHLEIVEVLLKAGADVNAKDSKGETPLHLAAFRGHLEIVEVLLKAGADVNAQDQQGETPADLAALAGHVDIAEVLQKAAGSPTPTPTTPTPTPTTPTPTPTGSDLGQKLLKAAQEGQDDEVRELLKAGADVNAKDLRGITPLHVAAWQGHLEIVEVLLKAGADVNAKDSKGETPLHLAAFRGHLEIVEVLLKAGADVNAQDQQGETPADLAALAGHVDIAEVLQKAAGSPTPTPTTPTPTPTTPTPTPTGSDLGKKLLEAARAGQDDEVRELLKAGADVNAKDYFSHTPLHLAARNGHLKIVEVLLKAGADVNAKDFAGKTPLHLAAADGHLEIVEVLLKAGADVNAQDIFGKTPADIAADAGHEDIAEVLQKAA
notes: also called HFBBH
The term koff denotes a measure of how fast the partners let go of each other. Read a low koff as a long-lived complex. What is called kon is a measure of how fast the partners come together. The low end stands for slower complex formation, the high end for faster complex formation. B1: the Kd in [1] was 67000 pM; in experiment [4], 8000 pM; with cynomolgus FAP (cFAP), 800 pM; in experiment [7], 400 pM; in experiment [8] it was 38000 pM; in [9], 13 pM. The koff in [1] is 0.075 s⁻¹; in [4], 0.012 s⁻¹; with cynomolgus FAP (cFAP), 0.00013 s⁻¹; in experiment [6], 3.2e-05 s⁻¹; in experiment [7] it was 0.00013 s⁻¹; in experiment [8], 0.038 s⁻¹. The kon in experiment [1] was found to be 1.1e+06 M⁻¹ s⁻¹; in experiment [4], 1.5e+06 M⁻¹ s⁻¹; in the experiment with cynomolgus FAP (cFAP), 170000 M⁻¹ s⁻¹; in [6], 2.6e+06 M⁻¹ s⁻¹; in experiment [7] it was 470000 M⁻¹ s⁻¹; in experiment [8], 1e+06 M⁻¹ s⁻¹. Moreover, the binding result in experiment [2] is “no binding (tested: 30 nM highest concentration injected)”; with mouse FAP (mFAP), “no binding (tested: 50 nM highest concentration injected)”. Moreover, in [3], the “EC50, IFNγ secretion of human CD8 T cells (plate-coated hFAP)” value is 1000 to 2000 pM. For the same molecule, in experiment [5], the “EC50, NF-κB-luciferase reporter in h4-1BB-HT1080 cells with CHO-hFAP cells” value came to 410 pM. Besides, the “EC50, IFNγ production by primary human CD8 T cells (anti-CD3 plus plate-coated hFAP)” value in experiment [10] turned out to be 1170 pM.

B2: bispecific construct #44 (designed binder)
chain: MRGSHHHHHHGSDLGEKLLVAALYGQDDEVRILLAAGADVNAKDQWGLTPLHKAALQGHLEIVEVLLKAGADVNAKDERGHTPLHWAARFGHLEIVEVLLKAGADVNAQDQKGYTPADLAALWGHEDIAEVLQKAAGSPTPTPTTPTPTPTTPTPTPTGSDLGQKLLKAAQEGQDDEVRELLKAGADVNAKDLRGITPLHVAAWQGHLEIVEVLLKAGADVNAKDSKGETPLHLAAFRGHLEIVEVLLKAGADVNAQDQQGETPADLAALAGHVDIAEVLQKLN
notes: also called FAP-4-1BB bispecific construct #44
Consider B2, for which the “EC50, 4-1BB activation in HT1080 reporter cells in presence of FAP-beads” value in experiment [11] came out at 4590 pM. The Kd in [12] was 360 pM; in experiment [15], 1450 pM; in experiment [16], 100 to 400 pM. Also, the “EC50, 4-1BB activation in HT1080 reporter cells in presence of FAP-expressing CHO cells (Population 1)” value in experiment [13] turned out to be 470 pM. Also, the “EC50, 4-1BB activation in HT1080 reporter cells in presence of FAP-expressing CHO cells (Population 2)” value in [14] amounted to 360 pM.
